Results taken from patent US20230102344A1.
Where a chain is given by its changes, count along the chain named.

B1: BJM0502 (scFv, part only; not given: Fc scaffold making it bivalent, part only)
scFv, part: QVQLVQSGAEVKKPGSSVKVSCKASGHDFHLWYIHWVRQAPGQGLEWMGRVSAGSGNVKYNEKFKGRVTITADTSTSTAYMELSSLRSEDTAVYYCAGSYYSYDVLDYWGQGTTVTVSSGGGGSGGGGSGGGGSGGGGSDIQMTQSPSFLSASVGDRVTITCKASQNVDNKVAWHQQKPGKAPKALIYSSSHRYKGVPSRFSGSGSGTEFTLTISSLQPEDFATYFCQQFKSYPLTFGQGTKLEIK
B2: A-H.66 (scFv)
scFv: B1 scFv, part with H30K, W32T, V51I, S52Y, V58T, G98V, D169G, N170D, K171R, A173V
B3: A-H.60 (scFv)
scFv: B1 scFv, part with H30K, W32T, V58T, G98V, D169G, N170D, K171R
B4: BJM0501 (scFv, part only; not given: Fc scaffold making it bivalent, part only)
scFv, part: B1 scFv, part with H30R, W32T, V51I, D169A, N170D, K171R, H175Y
B5: A-H.65 (scFv)
scFv: B1 scFv, part with H30K, W32T, V51I, V58T, G98V, D169G, N170D, K171R, A173V
B6: A-H.59 (scFv)
scFv: B1 scFv, part with H30R, W32T, V51I, S52Y, G98V, D169A, N170D, K171R, A173V
B7: A-H.58 (scFv)
scFv: B1 scFv, part with H30R, W32T, G98V, D169G, K171R, A173V
B8: A-H.68 (scFv, not shown: a dimerising Fc or GST)
scFv: B1 scFv, part with H30R, W32T, V51I, G98V, D169A, N170D, K171R, H175Y
B9: A-H.23 (scFv, not shown: a dimerising Fc or GST)
scFv: B1 scFv, part with H30R, W32T, V51I, D169A, N170D, K171R, H175Y
B10: A-H.61 (scFv)
scFv: B1 scFv, part with H30K, W32T, V58T, G98V, K171R
B11: A-H.24 (scFv)
scFv: B1 scFv, part
B12: A-H.62 (scFv)
scFv: B1 scFv, part with H30R, W32T, G98V, D169A, N170D, K171R, A173V
B13: A-H.57 (scFv)
scFv: B1 scFv, part with H30R, W32T, V58T, G98V, D169G, N170D, K171R, A173V
B14: A-H.63 (scFv)
scFv: B1 scFv, part with H30R, W32T, S52Y, V58T, G98V, D169E, N170D, K171R, A173V
B15: BJM0498 (scFv, part only; not given: Fc scaffold making it bivalent, part only)
scFv, part: B1 scFv, part with H27T, H30K, W32T, V51I, S52F, A53P, K171R, H175Y
B16: A-H.64 (scFv)
scFv: B1 scFv, part with H30K, W32T, V58T, G98V, D169A, N170D, K171R, A173V
B17: A-H.13 (scFv)
scFv: B1 scFv, part with H27T, H30K, W32T, V51I, S52F, A53P, K171R, H175Y
B18: A-H.67 (scFv)
scFv: B1 scFv, part with H27T, H30K, W32T, V51I, S52F, A53P, G98V, K171R, H175Y
B19: BJM0897 (antibody, V domains shown)
VH: QVQLVQSGAEVKKPGSSVKVSCKASGTDFKLTYIHWVRQAPGQGLEWMGRIFPGSGNVKYNEKFKGRVTITADTSTSTAYMELSSLRSEDTAVYYCAGSYYSYDVLDYWGQGTTVTVSS
VL: DIQMTQSPSFLSASVGDRVTITCKASQNVDNRVAWYQQKPGKAPKALIYSSSHRYKGVPSRFSGSGSGTEFTLTISSLQPEDFATYFCQQFKSYPLTFGQGTKLEIK
B20: BJM0912 (antibody, V domains shown)
VH: B19 VH with T27H, K30H, T32W, I51V, F52S, P53A
VL: B19 VL with R32K, Y36H
B21: BJM0899 (antibody, V domains shown)
VH: B19 VH with T27H, K30R, F52S, P53A
VL: B19 VL with D30A, N31D
B22: BJM0901 (bispecific antibody, not shown: a dimerising Fc or GST; large carriers)
heavy: QVQLVQSGAEVKKPGSSVKVSCKASGTDFKLTYIHWVRQAPGQGLEWMGRIFPGSGNVKYNEKFKGRVTITADTSTSTAYMELSSLRSEDTAVYYCAGSYYSYDVLDYWGQGTTVTVSSGGGGSGGGGSGGGGSGGGGSDIQMTQSPSFLSASVGDRVTITCKASQNVDNRVAWYQQKPGKAPKALIYSSSHRYKGVPSRFSGSGSGTEFTLTISSLQPEDFATYFCQQFKSYPLTFGQGTKLEIKGGGGSQVQLVQSGAEVKKPGSSVKVSCKASGYTFTDYNMHWVRQAPGQGLEWIGYIYPYNGGTGYNQKFKSKATITADESTNTAYMELSSLRSEDTAVYYCARGRPAMDYWGQGTLVTVSS
light: DIQMTQSPSSLSASVGDRVTITCRASESVDNYGISFMNWFQQKPGKAPKLLIYAASNQGSGVPSRFSGSGSGTDFTLTISSLQPDDFATYYCQQSKEVPWTFGQGTKVEIK

biological target: human TCRvβ (BIM0444) (human); test: SPR (Biacore): antibody captured via anti-human Fc on CM5, BIM0444 as analyte, 1:1 fit
Sequence (A0A0K0K1A5 22-114): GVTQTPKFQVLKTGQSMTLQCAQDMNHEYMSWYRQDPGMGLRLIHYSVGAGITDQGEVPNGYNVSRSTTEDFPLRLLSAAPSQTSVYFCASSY

Row | Kd [nM] | Binder
1 | 20 | B1
2 | 0.338 | B2
3 | 0.445 | B3
4 | 4.1 | B4
5 | 0.396 | B5
6 | 0.323 | B6
7 | 0.491 | B7
8 | 0.829 | B8
9 | 1.7 | B9
10 | 0.349 | B10
11 | 12 | B11
12 | 0.447 | B12
13 | 0.469 | B13
14 | 0.274 | B14
15 | 7.9 | B15
16 | 0.486 | B16
17 | 3.8 | B17
18 | 20 | B18
19 | 7.2 | B19
20 | 28 | B20
21 | 3.7 | B21

biological target: cynomolgus TCRvβ (BJM0847) (cynomolgus); test: SPR (Biacore): antibody captured on Protein L chip, BJM0847 as analyte, 1:1 fit

Row | Kd [nM] | Binder
22 | 387 | B1
23 | 2.2 | B2
24 | 1.6 | B3
25 | 87 | B4
26 | 0.725 | B5
27 | 5 | B6
28 | 0.158 | B7
29 | 0.607 | B10
30 | 0.766 | B12
31 | 0.762 | B13
32 | 5.8 | B14
33 | 86 | B15
34 | 1 | B16
35 | 69 | B19
36 | 326 | B20
37 | 130 | B21

biological target: human TCRvβ (BIM0444) (human); test: SPR (Biacore), Table 21; set-up not restated

Row | Kd [nM] | Binder
38 | 7.9 | B15
39 | 7.09 | B22

biological target: cynomolgus TCRvβ (BJM0847) (cynomolgus); test: SPR (Biacore), Table 21; set-up not restated

Row | Kd [nM] | Binder
40 | 86 | B15
41 | 55 | B22

biological target: cynomolgus TCRvβ (BJM0847) (cynomolgus); test: SPR (Biacore), comparison with the parental antibody

Row | fold improvement of affinity compared to the parental antibody [fold] | Binder
42 | 6 | B4
43 | 6 | B15

biological target: cynomolgus TCRvβ (BJM0847) (cynomolgus); test: SPR (Biacore): antibody amine-coupled to CM5, BJM0847 as analyte, 1:1 fit

Row | Kd [nM] | Binder
44 | 59 | B8
45 | 173 | B17
